B1: ARC CARD domain (amino acids 1-95), wild type [human] / itself (parent)
chain: MGNAQERPSETIDRERKRLVETLQADSGLLLDALLARGVLTGPEYEALDALPDAERRVRRLLLLVQGKGEAACQELLRCAQRTAGAPDPAWDWQH

The assay covers variants of B1. The assay is described as follows: SEC-MALS. As to conditions: with itself. (Size exclusion chromatography separates by hydrodynamic size, large species first.)
As to chain 1 R59E, the screen value was found to be 12 kDa.

For the variant chain 1 D49R, the screen value is 13 kDa.

Turning to chain 1 R56E R59E, the screen value was determined as 11.8 kDa.

chain 1 R56E: the screen value is 13.2 kDa.

For chain 1 D49R R59E, the screen value is 12.8 kDa.

Values taken from publication PMC4453921, “Crystal structure of caspase recruiting domain (CARD) of apoptosis repressor with CARD (ARC) and its implication in inhibition of apoptosis” (Scientific Reports, 2015).
